The results in this text go back to patent US20100047243A1 (published 2010).

The test concerns the target T1, recombinant cynomolgus macaque IGF-1R (IGF-1R-Fc fusion protein of Example 4) (cynomolgus macaque (Macaca fascicularis)).
T1 construct: also called Cynomolgus IGF-1R; cyno IGF-1R
The test can be described thus: Biacore T100, antibody captured on Protein A, recombinant cynomolgus IGF-1R analyte (256-16 nM), HBS-EP, 37 C. (In general: In SPR one partner is held on a chip, and binding of the other changes the refractive index at the surface.)

T1 sequence (chain, as listed by the source limits assumed): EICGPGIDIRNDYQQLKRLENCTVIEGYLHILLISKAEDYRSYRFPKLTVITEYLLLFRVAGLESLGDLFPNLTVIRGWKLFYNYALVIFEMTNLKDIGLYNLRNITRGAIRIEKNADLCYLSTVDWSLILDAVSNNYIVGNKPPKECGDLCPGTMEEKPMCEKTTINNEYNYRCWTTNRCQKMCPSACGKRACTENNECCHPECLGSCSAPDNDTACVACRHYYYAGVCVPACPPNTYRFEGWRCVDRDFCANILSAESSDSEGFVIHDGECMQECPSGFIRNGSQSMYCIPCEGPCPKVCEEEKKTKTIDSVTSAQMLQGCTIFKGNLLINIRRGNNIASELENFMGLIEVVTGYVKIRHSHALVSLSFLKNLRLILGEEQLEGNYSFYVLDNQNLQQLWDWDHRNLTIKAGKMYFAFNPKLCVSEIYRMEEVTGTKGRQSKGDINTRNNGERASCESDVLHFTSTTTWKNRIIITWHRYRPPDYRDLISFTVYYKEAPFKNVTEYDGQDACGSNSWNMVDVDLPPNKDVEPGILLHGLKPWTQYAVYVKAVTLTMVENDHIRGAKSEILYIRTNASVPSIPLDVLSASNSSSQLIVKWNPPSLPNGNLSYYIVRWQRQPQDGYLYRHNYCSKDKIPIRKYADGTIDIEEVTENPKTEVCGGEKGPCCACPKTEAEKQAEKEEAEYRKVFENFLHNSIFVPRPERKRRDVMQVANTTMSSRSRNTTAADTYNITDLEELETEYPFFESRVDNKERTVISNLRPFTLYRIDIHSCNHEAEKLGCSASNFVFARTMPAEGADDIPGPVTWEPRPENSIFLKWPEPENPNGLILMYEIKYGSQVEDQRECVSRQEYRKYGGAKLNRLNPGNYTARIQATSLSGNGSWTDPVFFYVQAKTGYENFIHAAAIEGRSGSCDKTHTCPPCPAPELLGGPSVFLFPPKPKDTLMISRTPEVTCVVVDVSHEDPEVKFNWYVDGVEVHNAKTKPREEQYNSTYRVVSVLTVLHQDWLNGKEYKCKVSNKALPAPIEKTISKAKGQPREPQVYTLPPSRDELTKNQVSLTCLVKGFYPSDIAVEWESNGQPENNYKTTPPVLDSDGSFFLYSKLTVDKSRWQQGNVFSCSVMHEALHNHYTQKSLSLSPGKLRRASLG
Description: Protein A was immobilised on a CM5 surface by primary amine coupling in accordance with the manufacturers standard protocols. Antibodies against IGF-1R were captured on this surface and after a period of stabilisation recombinant human or cynomolgus IGF-1R was injected over this captured surface. […] Data was analysed using the 1:1 model inherent to the Biacore machine, the work was carried out on the T100 using HBS-EP running buffer at 37° C.

B1: 6E11 chimeric antibody (antibody, human IgG1, kappa, V domains shown)
VH: EVQLQQSGPELVKPGASVRISCKASGYAFTDYYMNWVKQSHGKSLEWVANINPNNGGTNYNQKFKDKATLTVDKSSNTAYMELRSLTSEDTAVYYCARWILYYGRSKWYFDVWGTGTLVTVSS
VL: DVLMTQTPLSLPVSLGDHASISCRSSQSIVQSNGDTYLEWYLQKPGQSPKLLIYRISNRFSGVPDRFSGSGSGTDFTLKISRVEAEDLGVYYCFQGSHVPYTFGGGTKLEIKR
notes: Murine 6E11 variable domains on human IgG1/kappa wild type constant regions; also called 6E11 chimera; 6E11 chimaera
Turning to B1, the Kd (in general, the constant that tells how readily two partners part at equilibrium) is 0.19 nM.
